The values below come from the supplement of paper PMC10567573.

B1: INTS4 (parent)
chain: AKQIMEETYKMEFMYSGVENKQVV
B2: RHOBTB3 (parent)
chain: GGADIIVIKYNVNDKFSFHEVKDN
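Further: lentivirally expressed fusions sorted by FACS into six bins by GFP to DsRed ratio, PSI derived from sequencing read proportions per bin multiplied by bin number.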

The first series covers variants of B1. The experiment in a line: protein stability index of a GFP-peptide fusion (GPS, HEK-293T) (PSI 1-6); higher = more stable. The following applies: c terminus: a fixed tail appended.
Turning to AKYIMEETYKMEFMYSGVENKQVV [Q3Y], the protein stability index is 1.84.

Regarding AKGIMEETYKMEFMYSGVENKQVV [Q3G], the protein stability index worked out at 3.49.

Turning to AKQVMEETYKMEFMYSGVENKQVV [I4V], the protein stability index is 2.42.

Take AKQMMEETYKMEFMYSGVENKQVV [I4M]: the protein stability index was found to be 1.9.

AKQIMEETYKMEFMISGVENKQVV [Y15I]: the protein stability index turned out to be 2.

On to AKQIMEETYKMEFMTSGVENKQVV [Y15T], for which the protein stability index turned out to be 2.08.

Turning to AKQIMEETYKMEFMPSGVENKQVV [Y15P], the protein stability index amounted to 3.04.

AKQIMEETYKMEEMYSGVENKQVV [F13E]: the protein stability index stood at 4.3.

As to AKQIMEETYKMEQMYSGVENKQVV [F13Q], the protein stability index is 3.12.

On to AKQIMEETYKMELMYSGVENKQVV [F13L], for which the protein stability index amounted to 2.26.

With AFQIMEETYKMEFMYSGVENKQVV [K2F], the protein stability index stood at 2.51.

As for ACQIMEETYKMEFMYSGVENKQVV [K2C], the protein stability index came out at 2.23.

Regarding AKQIMESTYKMEFMYSGVENKQVV [E7S], the protein stability index worked out at 1.67.

Consider AKQIMENTYKMEFMYSGVENKQVV [E7N], for which the protein stability index was determined as 1.9.

Regarding AKQIMEETYKGEFMYSGVENKQVV [M11G], the protein stability index is 3.28.

As for AKQIMYETYKMEFMYSGVENKQVV [E6Y], the protein stability index stood at 1.61.

With AKQIMEETYKMEFNYSGVENKQVV [M14N], the protein stability index turned out to be 1.99.

Take AKQIMEETYKMEFMYSGVENKQVI [V24I]: the protein stability index was found to be 1.51.

As for AKQIMEETYKMEFMYSGVENKQVN [V24N], the protein stability index worked out at 2.44.

Consider AKQIMEETYKMEFMYSGVENKQVK [V24K], for which the protein stability index worked out at 1.98.

For the variant AKQIMEETYKMEFMYSGVENKQVQ [V24Q], the protein stability index was found to be 1.89.

As for AKQIMEETYKMEFMYSGVENKQVP [V24P], the protein stability index was determined as 2.54.

AKQIMEETYKMEFMYSGVENKQVH [V24H]: the protein stability index turned out to be 1.65.

As for AKQIQEETYKMEFMYSGVENKQVV [M5Q], the protein stability index is 3.25.

For AKQIMEETYKMEFMYSGVVNKQVV [E19V], the protein stability index is 1.28.

Turning to WKQIMEETYKMEFMYSGVENKQVV [A1W], the protein stability index was determined as 2.44.

Regarding AKQIMEETYKMAFMYSGVENKQVV [E12A], the protein stability index is 2.97.

Regarding AKQIMEETYKMEFMYSAVENKQVV [G17A], the protein stability index worked out at 1.51.

In the case of AKQIMEETYKMEFMYSPVENKQVV [G17P], the protein stability index stood at 1.29.

Turning to AKQIMEETYKMEFMYSGVEWKQVV [N20W], the protein stability index amounted to 3.06.

With AKQIMEETYKMEFMYSGVENKQMV [V23M], the protein stability index was 3.75.

In a further series the parent is B2. The series is described as above. The conditions noted are these: c terminus: a fixed tail appended.
In the case of GGADIIVIKYNVNDKKSFHEVKDN [F16K], the protein stability index came out at 1.73.

With GGADIIVIKYNVNDKESFHEVKDN [F16E], the protein stability index was determined as 2.12.

Take GGADIIVIKYNVNDKASFHEVKDN [F16A]: the protein stability index worked out at 2.24.

As to GGADIIVIKYNVNDKDSFHEVKDN [F16D], the protein stability index turned out to be 2.07.

Turning to GGADIIVIKYNVNDKCSFHEVKDN [F16C], the protein stability index is 2.2.

Regarding GGADIIVIKYNVNDKMSFHEVKDN [F16M], the protein stability index was found to be 2.04.

Turning to GGADIIVIKYNVNDKSSFHEVKDN [F16S], the protein stability index is 3.13.

For GGADIIVIKYNVNDKYSFHEVKDN [F16Y], the protein stability index is 2.62.

Regarding GGADIIVIKYNVNDKQSFHEVKDN [F16Q], the protein stability index was 1.85.

In the case of GGADIIVIKYNVNDKPSFHEVKDN [F16P], the protein stability index amounted to 2.55.

As to GGADIIVIKYNVNDKFSFHEVKGN [D23G], the protein stability index is 2.34.

On to GGADIIVIKYNVNDKFSFHEVKNN [D23N], for which the protein stability index came to 2.44.

With GGADIIVIKYNVNDKFSFHEVKCN [D23C], the protein stability index was 2.08.

As for GGADIIVIKYNVNDKFSFHEVKHN [D23H], the protein stability index worked out at 3.28.

Turning to GGADIIVIKYNVNDKFSFHEVKVN [D23V], the protein stability index amounted to 2.83.

On to GGADIIVIKYNVNDKFSVHEVKDN [F18V], for which the protein stability index stood at 2.49.

For GGADIIVIKYNVNDKFSEHEVKDN [F18E], the protein stability index amounted to 1.76.

Turning to GGADIIVIKYNVNDKFSGHEVKDN [F18G], the protein stability index is 2.03.

For the variant GGADIIVIKYNVNDKFSQHEVKDN [F18Q], the protein stability index came out at 1.99.

For the variant GGADIIVIKYNVNDKFSAHEVKDN [F18A], the protein stability index is 3.47.

Regarding GGADIIVIKYNVNDKFSIHEVKDN [F18I], the protein stability index stood at 1.95.

Consider GGADIIVIKYNVNDKFSLHEVKDN [F18L], for which the protein stability index amounted to 2.53.

In the case of GGADIIVIKYNVNDKFSRHEVKDN [F18R], the protein stability index is 4.04.

With EGADIIVIKYNVNDKFSFHEVKDN [G1E], the protein stability index came out at 2.13.

As to CGADIIVIKYNVNDKFSFHEVKDN [G1C], the protein stability index stood at 2.27.

As for QGADIIVIKYNVNDKFSFHEVKDN [G1Q], the protein stability index was 2.37.

For the variant HGADIIVIKYNVNDKFSFHEVKDN [G1H], the protein stability index turned out to be 2.3.

As to PGADIIVIKYNVNDKFSFHEVKDN [G1P], the protein stability index came out at 2.18.

For the variant GSADIIVIKYNVNDKFSFHEVKDN [G2S], the protein stability index is 1.62.

For GQADIIVIKYNVNDKFSFHEVKDN [G2Q], the protein stability index is 1.86.

With GVADIIVIKYNVNDKFSFHEVKDN [G2V], the protein stability index is 1.64.

Take GHADIIVIKYNVNDKFSFHEVKDN [G2H]: the protein stability index was 3.5.

Take GIADIIVIKYNVNDKFSFHEVKDN [G2I]: the protein stability index was determined as 1.52.

For GRADIIVIKYNVNDKFSFHEVKDN [G2R], the protein stability index is 2.76.

Regarding GLADIIVIKYNVNDKFSFHEVKDN [G2L], the protein stability index was 1.71.

As for GGADIIDIKYNVNDKFSFHEVKDN [V7D], the protein stability index stood at 4.15.

As for GGADIIQIKYNVNDKFSFHEVKDN [V7Q], the protein stability index was determined as 2.31.

Take GGADIIWIKYNVNDKFSFHEVKDN [V7W]: the protein stability index came to 1.52.

On to GGADIICIKYNVNDKFSFHEVKDN [V7C], for which the protein stability index turned out to be 1.79.

Take GGADIIEIKYNVNDKFSFHEVKDN [V7E]: the protein stability index stood at 3.28.

As to GGADIIMIKYNVNDKFSFHEVKDN [V7M], the protein stability index was found to be 2.06.

As for GGADIILIKYNVNDKFSFHEVKDN [V7L], the protein stability index was 2.3.

Regarding GGADIIVIKENVNDKFSFHEVKDN [Y10E], the protein stability index came to 2.29.

Take GGADIIVIKFNVNDKFSFHEVKDN [Y10F]: the protein stability index was 2.26.

With GGADIIVIKPNVNDKFSFHEVKDN [Y10P], the protein stability index was 2.77.

In the case of GGADIIVIKRNVNDKFSFHEVKDN [Y10R], the protein stability index came out at 2.53.

In the case of GGADIIVIKKNVNDKFSFHEVKDN [Y10K], the protein stability index was 1.82.

In the case of GGADIIVIKINVNDKFSFHEVKDN [Y10I], the protein stability index was 4.15.

With GGADIIVIKWNVNDKFSFHEVKDN [Y10W], the protein stability index amounted to 3.26.

Consider GGADIIVIKTNVNDKFSFHEVKDN [Y10T], for which the protein stability index was 1.92.

As to GGADIIVIKYNVNDKFSFHETKDN [V21T], the protein stability index stood at 1.46.

Take GGADIIVIKYNVNDKFSFHELKDN [V21L]: the protein stability index came to 2.72.

Turning to GGADIIVIKYNVNDKFSFHEQKDN [V21Q], the protein stability index was 2.29.

As for GGADIIVIKYNVNDKFSFHESKDN [V21S], the protein stability index was 2.5.

As for GGADIIVIKYNVNDKFSFHEYKDN [V21Y], the protein stability index was 2.98.

As to GGADIIVIKYNVNDKFSFHEGKDN [V21G], the protein stability index came out at 3.4.

With GGADIIVIKYNVNDKFSFHEHKDN [V21H], the protein stability index came to 2.15.

As to GGADIIVIKYNVNDKFSFHEDKDN [V21D], the protein stability index stood at 1.3.

Turning to GGADIIVIKYWVNDKFSFHEVKDN [N11W], the protein stability index was determined as 3.58.

On to GGADIIVIKYFVNDKFSFHEVKDN [N11F], for which the protein stability index is 1.97.

With GGADIIVIKYIVNDKFSFHEVKDN [N11I], the protein stability index was 2.24.

For the variant GGADIIVIKYAVNDKFSFHEVKDN [N11A], the protein stability index is 2.36.

GGADIIVIKYQVNDKFSFHEVKDN [N11Q]: the protein stability index stood at 3.46.
